Data from IntAct's records for PubMed 16865698.

B1: Mothers against decapentaplegic homolog 4 (Homo sapiens), Q13485 (parent)
chain: MDNMSITNTPTSNDACLSIVHSLMCHRQGGESETFAKRAIESLVKKLKEKKDELDSLITAITTNGAHPSKCVTIQRTLDGRLQVAGRKGFPHVIYARLWRWPDLHKNELKHVKYCQYAFDLKCDSVCVNPYHYERVVSPGIDLSGLTLQSNAPSSMMVKDEYVHDFEGQPSLSTEGHSIQTIQHPPSNRASTETYSTPALLAPSESNATSTANFPNIPVASTSQPASILGGSHSEGLLQIASGPQPGQQQNGFTGQPATYHHNSTTTWTGSRTAPYTPNLPHHQNGHLQHHPPMPPHPGHYWPVHNELAFQPPISNHPAPEYWCSIAYFEMDVQVGETFKVPSSCPIVTVDGYVDPSGGDRFCLGQLSNVHRTEAIERARLHIGKGVQLECKGEGDVWVRCLSDHAVFVQSYYLDREAGRAPGDAVHKIYPSAYIKVFDLRQCHRQMQQQAATAQAAAAAQAAAVAGNIPGPGSVGGIAPAISLSAAAGIGVDDLRRLCILRMSFVKGWGPDYPRQSIKETPCWIEIHLHRALQLLDEVLHTMPIADPQPLD

Variants of: B1
Conditions: with fbw1a_human BTRC

effect of a mutation on the interaction | Variant
with no effect | P102L

Variants of: B1
Conditions: with skp2_human SKP2, Q13309
Chain of skp2_human SKP2, Q13309 (Q13309 whole entry): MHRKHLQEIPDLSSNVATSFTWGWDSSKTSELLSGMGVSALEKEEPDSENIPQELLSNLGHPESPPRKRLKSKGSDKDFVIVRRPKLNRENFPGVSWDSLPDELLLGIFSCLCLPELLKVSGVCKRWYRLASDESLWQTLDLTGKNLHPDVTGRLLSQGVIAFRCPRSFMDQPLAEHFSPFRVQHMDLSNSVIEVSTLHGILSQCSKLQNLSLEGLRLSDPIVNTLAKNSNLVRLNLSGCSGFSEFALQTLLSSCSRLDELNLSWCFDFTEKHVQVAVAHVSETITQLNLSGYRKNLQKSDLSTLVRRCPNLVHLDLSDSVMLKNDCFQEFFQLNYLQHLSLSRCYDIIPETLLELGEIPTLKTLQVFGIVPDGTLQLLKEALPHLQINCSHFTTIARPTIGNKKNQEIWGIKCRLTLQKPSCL

effect of a mutation on the interaction | Variant
disrupting interaction strength | P102L
